Test results: patent publication US20240327526A1
Numbering of substitutions follows the chain as printed.

B1: M43 (antibody, human IgG2, lambda, V domains shown)
VH: EVQLLESGGGLVQPGGSLRLSCAASGFTFRNSAMSWVRQAPGKGLEWVSGISVTGGSTFYTDSVKGRFTVSRDNSRNTLYLQMNSLRAEDTAVYYCAKVYYYSFFDYWGQGTLVTVSS
VL: QTVVTQEPSFSVSPGGTVTLTCGFNSGSVSTSYWPSWYQQTPGQAPRTLIYNTNTRSSGVPDRFSGSILGNKAALTITGAQADDESDYYCVLWMGSGIWVFGGGTKLTVLG
B2: Anti-ActRIIB human IgG R31-1 (antibody, V domains shown)
VH: B1 VH with S32Y, F59Y, Y102S
VL: B1 VL with W34Y, W93Y

How the values were obtained:
ActRIIB-huFc (human) [1] = experiment: BIAcore
ActRIIB-huFc (human), sequence (chain, as listed by the source limits assumed, form in doubt): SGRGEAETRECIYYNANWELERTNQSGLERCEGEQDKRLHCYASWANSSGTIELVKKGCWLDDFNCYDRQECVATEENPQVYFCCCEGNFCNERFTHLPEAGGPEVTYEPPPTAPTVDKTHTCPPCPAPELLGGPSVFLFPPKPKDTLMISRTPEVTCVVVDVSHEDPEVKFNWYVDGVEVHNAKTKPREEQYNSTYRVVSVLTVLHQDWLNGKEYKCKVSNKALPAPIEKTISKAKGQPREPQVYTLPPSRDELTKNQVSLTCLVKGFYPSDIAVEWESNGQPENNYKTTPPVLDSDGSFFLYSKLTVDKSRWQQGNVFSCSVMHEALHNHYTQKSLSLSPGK

ActRIIB-huFc (human) [2] = experiment: KinExA
ActRIIB-huFc (human) [3] = experiment: binding affinity, method not stated

Row | Binder | Kd (ActRIIB-huFc (human) [1]) | Kd (ActRIIB-huFc (human) [2]) | fold improvement of affinity over the parental molecule R31-1 (ActRIIB-huFc (human) [2]) | Kd (ActRIIB-huFc (human) [3])
1 | B1 | 1 pM | < 1 pM | 10 fold | –
2 | B2 | 10 pM | – | – | < 10 pM
